Laboratory results reported in the supplement of paper PMC10724198.
± gives the standard deviation of the averaged measurements.

Tested on: Saccharomyces cerevisiae
Assay: protein stability index of tFT-peptide fusion (C-terminal peptide) (PSI (0-1 scale)); higher = more stable (slower turnover)
Details: genetic background: wild type; temperature: 30 C
Description: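 Multiplexed protein stability (MPS) profiling in S. cerevisiae. Random 12-aa peptides (tFT-X12 library) are fused to the C-terminus of a sfGFP-mCherry tandem fluorescent timer, after mCherry and a GGGS linker. Cells are FACS-sorted into 8 mCherry/sfGFP bins and deep-sequenced. The protein stability index (PSI) is the read-weighted bin average, scaled from 0 (unstable) to 1 (stable). Only peptides with >10 reads are reported; cells were grown at 30 °C in SC-His with glucose.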
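Further: PSI is a weighted mean of sequencing reads over stability bins, variants kept only with over 10 reads, mCherry proximal and sfGFP distal, peptide attached via GGGS linker.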

Row | Sequence | protein stability index
1 | LCGFLPSFHLLY | 0.679 ± 0.0088
2 | SKLVSPGVPRTP | 0.78 ± 0.043
3 | SIVESRGRGFRL | 0.697 ± 0.18
4 | KHSRKPTHKKLI | 0.69 ± 0.016
5 | GLASLTGVPRCW | 0.723 ± 0.027
6 | TAHPCVYRRGAV | 0.675 ± 0.021
7 | SIWVLLVPRQSI | 0.639 ± 0.11
8 | GGLICRHGVGRG | 0.705 ± 0.024
9 | LWGEGAGPEDVG | 0.674 ± 0.011
10 | LPPRPPTHSPPP | 0.722 ± 0.011
11 | SSRVWPRRRSTA | 0.634 ± 0.052
12 | CLYVGSRPPRSA | 0.71 ± 0.031
13 | ARRGATRGHAHV | 0.684 ± 0.046
14 | VGGAVGAVGGGG | 0.651 ± 0.02
15 | NPLDRQNCTCGE | 0.656 ± 0.13
16 | SGRGANGVPGGE | 0.602 ± 0.16
17 | LVSLVGVGWGCG | 0.729 ± 0.023
18 | AFVLGSWSWWRA | 0.715 ± 0.015
19 | PPPPSPPPPSTT | 0.751 ± 0.08
20 | DRLVGRVGGHGM | 0.755 ± 0.14
21 | VFLRVGAPPVRI | 0.586 ± 0.032
22 | RLLRLLTALPPL | 0.6387 ± 0.0026
23 | PIYRNKGNRGGI | 0.739 ± 0.034
24 | SAVWWDRLDIRK | 0.687 ± 0.012
25 | PSPATCGSSFSK | 0.734 ± 0.056

Row | Sequence | protein stability index
26 | SLSPWRLPIGGR | 0.734 ± 0.035
27 | SPRGLQSAPSGI | 0.7399 ± 0.0057
28 | PVSLPPSLRRPS | 0.736 ± 0.034
29 | GEQAGLSLTAGP | 0.678 ± 0.03
30 | HEGPGTTEFLGL | 0.717 ± 0.059
31 | GVAGRRRRAGAW | 0.7294 ± 0.002
32 | PFPPSAHPPPPH | 0.795 ± 0.085
33 | SDHVYHFRLTRV | 0.709 ± 0.076
34 | KKEDNKEKYRKK | 0.667 ± 0.013
35 | PPPPAHPPPRSP | 0.741 ± 0.035
36 | KHRGAQRSRARH | 0.645 ± 0.012
37 | LSLVDFSTLWFF | 0.611 ± 0.08
38 | GGGVSSEWSGCR | 0.665 ± 0.0087
39 | PPFPHPSRLPPA | 0.726 ± 0.028
40 | VLRPVSCTKLAA | 0.656 ± 0.083
41 | HSLRLPPSVHFP | 0.6797 ± 0.004
42 | EAFARGAPNQTS | 0.804 ± 0.066
43 | ENQKKSKTNRKK | 0.658 ± 0.036
44 | EVVGILSSVNIA | 0.647 ± 0.03
45 | LHHLASPSPPTP | 0.797 ± 0.015
46 | NCFVTILLGMWK | 0.513 ± 0.022
47 | LNSCLIVDEPDI | 0.8026 ± 0.0048
48 | PHILPTSDSPFP | 0.78463 ± 0.00073
49 | MTKNKFLTGSRL | 0.845 ± 0.22
50 | IEVSRRDLRIHL | 0.6949 ± 0.0032

Row | Sequence | protein stability index
51 | DANRSPEYSLNG | 0.7169 ± 0.0062
52 | KNVVSVRWERNE | 0.635 ± 0.084
53 | PSPASPTPPLVQ | 0.682 ± 0.067
54 | APRRSPGWGPEG | 0.731 ± 0.083
55 | PCIKHNSSLIGP | 0.701 ± 0.081
56 | MQLWECKQSLCD | 0.696 ± 0.017
57 | KKKNKKKEKKKN | 0.714 ± 0.049
58 | VVGAGTEWMVEV | 0.642 ± 0.025
59 | EQENATDRRGRE | 0.644 ± 0.026
60 | PHLPPPPDPPRP | 0.676 ± 0.009
61 | IKIRIAANRTKY | 0.63796 ± 0.00029
62 | RRHNPARSRARG | 0.686 ± 0.053
63 | SLTYSDGCTKSI | 0.742 ± 0.043
64 | SPARLHLPPFSP | 0.717 ± 0.016
65 | NVYSVRGPWYGG | 0.6604 ± 0.0059
66 | RVISIIREQEPV | 0.677 ± 0.034
67 | GNGENKVIVRKS | 0.696 ± 0.045
68 | RLVAGETWAMSR | 0.674 ± 0.0045
69 | SSLGNSFYLSPH | 0.683 ± 0.033
70 | HFAMCSTTFVIT | 0.618 ± 0.029
71 | DWVDFFQSVIWI | 0.761 ± 0.0079
72 | ASSLKSTQVSGV | 0.72769 ± 0.00011
73 | TRPSGSFLALPP | 0.685 ± 0.05
74 | LFIVSFSPGFPF | 0.635 ± 0.11
75 | YGCVSPVAGFAN | 0.7254 ± 0.0069

Row | Sequence | protein stability index
76 | SGDLLLGCTLVV | 0.6313 ± 0.0018
77 | RDGSNSNGKKKK | 0.6 ± 0.051
78 | RFPLCLHLPLLL | 0.55 ± 0.012
79 | PPRARPRLPPGA | 0.606 ± 0.04
80 | EGVGLAETAGDD | 0.684 ± 0.039
81 | VLYGRFSLLGWC | 0.595 ± 0.042
82 | VWGWGAWGGCGG | 0.719 ± 0.067
83 | WGVVGEWAGVGR | 0.747 ± 0.052
84 | PPPCPHLAPRLP | 0.714 ± 0.071
85 | TSRNFPGLHDNY | 0.673 ± 0.052
86 | GFSAGVSHSGAG | 0.661 ± 0.017
87 | RAPGPGQIRLVQ | 0.72 ± 0.035
88 | PSAPPTPLAPSH | 0.678 ± 0.028
89 | FRLGIKFYTLAV | 0.514 ± 0.01
90 | DLGQVLSEASAS | 0.742 ± 0.034
91 | GGVSGEGFSWVG | 0.66987 ± 0.0004
92 | RPFSAPLCLLPS | 0.7 ± 0.024
93 | PSLPLPPPPAHP | 0.65 ± 0.02
94 | RSRGSTKLKNLI | 0.817 ± 0.056
95 | LPILPQHQPTTD | 0.674 ± 0.014
96 | YWGGWWGGWEIG | 0.689 ± 0.014
97 | DVTKLVLSIDSC | 0.751 ± 0.052
98 | SVLVCSAIVIRK | 0.5998 ± 0.00079
99 | APVVSFTAPLAF | 0.619 ± 0.1
100 | KKKKEISNEAKQ | 0.672 ± 0.093

Row | Sequence | protein stability index
101 | RNTPTATHHTTG | 0.681 ± 0.026
102 | GLEPSGLSGGSW | 0.672 ± 0.041
103 | VSVGWWVGFWGV | 0.6968 ± 0.0051
104 | PRLPTSPVPHPP | 0.6473 ± 0.0033
105 | VTLGQNGVSLRS | 0.596 ± 0.071
106 | RDAPLGRRLRPV | 0.678 ± 0.021
107 | GLPWRRVGGGAG | 0.644 ± 0.013
108 | EKKKKTKYKKKK | 0.735 ± 0.052
109 | FSIRALGSLGVF | 0.693 ± 0.027
110 | LFYVNIPTQFVR | 0.564 ± 0.014
111 | GRVRFVCVGLGG | 0.639 ± 0.047
112 | KKKKKKKEYKKK | 0.752 ± 0.038
113 | VGLPPVAGLVTG | 0.751 ± 0.073
114 | KKKIKIQPRTEN | 0.7302 ± 0.0065
115 | SLSDGGPSCPGV | 0.677 ± 0.032
116 | CFRFPILTSHFY | 0.592 ± 0.026
117 | FDAWTHAGMYNW | 0.757 ± 0.058
118 | RSGSVGGMECHV | 0.7 ± 0.18
119 | SSPAPPPPSPAS | 0.744 ± 0.043
120 | SGNSPTRDRLRE | 0.684 ± 0.16
121 | PVLGRFGSTFVV | 0.674 ± 0.059
122 | ESPPVCFLFSSC | 0.711 ± 0.021
123 | SGAWSGGGESGH | 0.596 ± 0.058
124 | IVCLWVAGHFGL | 0.602 ± 0.014
125 | AVCLLRLDRSRA | 0.665 ± 0.027

Row | Sequence | protein stability index
126 | SRPPSPHPLPPP | 0.656 ± 0.027
127 | YRDQAGTGSWRM | 0.692 ± 0.023
128 | HSYMFIRNTIRI | 0.6281 ± 0.0031
129 | FMDLVRSVPTGC | 0.706 ± 0.046
130 | IDFISSVLSYLS | 0.663 ± 0.013
131 | WRGGWAETGGRE | 0.705 ± 0.013
132 | VVSFDPLFPSPR | 0.706 ± 0.037
133 | PPLPLPSPPTPH | 0.654 ± 0.021
134 | LLPFDTYPPTSP | 0.695 ± 0.036
135 | IPPDAFAQLTYS | 0.733 ± 0.0093
136 | GGRLGRGVVRGW | 0.704 ± 0.011
137 | GQQVDKMLWDEV | 0.715 ± 0.025
138 | RRLRWQNKIIGI | 0.868 ± 0.13
139 | RRAGHYHYSVRL | 0.704 ± 0.053
140 | EGGVRSRVRSRL | 0.863 ± 0.063
141 | LGLPSSLGPSDF | 0.682 ± 0.011
142 | RWVRGDVFQGFC | 0.693 ± 0.052
143 | QKDLVGSKSEYE | 0.735 ± 0.058
144 | SCVDRAVGCRVS | 0.6961 ± 0.0042
145 | PFVCPHLPAPPP | 0.791 ± 0.094
146 | GPRRLGGTSLGI | 0.651 ± 0.098
